The record followed here is article PMC10891134, “Bacteria employ lysine acetylation of transcriptional regulators to adapt gene expression to cellular metabolism” (Nature Communications, 2024).

In data set [1] the target is RutR AcK7/11 K7AcK;K11AcK (Escherichia coli K12?) (UniProt P0ACU2). Kind of data set: SPR. As to conditions: ITC: 100 mM potassium phosphate pH 6.4, 150 mM NaCl, 5 mM MgCl2, 2 mM b-ME, 20 or 25 C; SPR: 100 mM potassium phosphate pH 6.4, 300 mM NaCl, 0.05% Tween20 ….
For data set [2], the target named is RutR AcK11 K11AcK (Escherichia coli K12?) (UniProt P0ACU2). Briefly: ITC. Conditions: ITC: 100 mM potassium phosphate pH 6.4, 150 mM NaCl, 5 mM MgCl2, 2 mM b-ME, 20 or 25 C; SPR: 100 mM potassium phosphate pH 6.4, 300 mM NaCl, 0.05% Tween20 ….
Chain of RutR AcK11 K11AcK (Escherichia coli K12?) (P0ACU2 whole entry): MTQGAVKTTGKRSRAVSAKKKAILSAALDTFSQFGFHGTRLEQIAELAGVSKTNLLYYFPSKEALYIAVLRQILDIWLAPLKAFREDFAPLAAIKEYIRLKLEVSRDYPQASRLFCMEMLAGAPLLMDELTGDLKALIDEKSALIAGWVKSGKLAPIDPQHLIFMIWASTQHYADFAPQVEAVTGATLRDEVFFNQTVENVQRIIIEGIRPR
In data set [3] the target is RutR AcK150 K150AcK (Escherichia coli K12?) (UniProt P0ACU2). Kind of data set: ITC. Conditions: ITC: 100 mM potassium phosphate pH 6.4, 150 mM NaCl, 5 mM MgCl2, 2 mM b-ME, 20 or 25 C; SPR: 100 mM potassium phosphate pH 6.4, 300 mM NaCl, 0.05% Tween20 ….
The target of data set [4] is RutR AcK21 K21AcK (Escherichia coli K12?) (UniProt P0ACU2). Kind of data set: ITC. Conditions: ITC: 100 mM potassium phosphate pH 6.4, 150 mM NaCl, 5 mM MgCl2, 2 mM b-ME, 20 or 25 C; SPR: 100 mM potassium phosphate pH 6.4, 300 mM NaCl, 0.05% Tween20 ….
Data set [5] deals with RutR AcK7 K7AcK (Escherichia coli K12?) (UniProt P0ACU2). Kind of data set: ITC. Conditions: ITC: 100 mM potassium phosphate pH 6.4, 150 mM NaCl, 5 mM MgCl2, 2 mM b-ME, 20 or 25 C; SPR: 100 mM potassium phosphate pH 6.4, 300 mM NaCl, 0.05% Tween20 ….
The target in data set [6] is RutR AcK7/11 K7AcK;K11AcK (Escherichia coli K12?) (UniProt P0ACU2). Briefly: ITC. Conditions: ITC: 100 mM potassium phosphate pH 6.4, 150 mM NaCl, 5 mM MgCl2, 2 mM b-ME, 20 or 25 C; SPR: 100 mM potassium phosphate pH 6.4, 300 mM NaCl, 0.05% Tween20 ….
Data set [7] concerns the target RutR AcK95 K95AcK (Escherichia coli K12?) (UniProt P0ACU2). Kind of data set: ITC. Conditions: ITC: 100 mM potassium phosphate pH 6.4, 150 mM NaCl, 5 mM MgCl2, 2 mM b-ME, 20 or 25 C; SPR: 100 mM potassium phosphate pH 6.4, 300 mM NaCl, 0.05% Tween20 ….
A further data set concerns the target T1, RutR K7R/K11R (UniProt P0ACU2 1-212, K7R;K11R).
T1 sequence: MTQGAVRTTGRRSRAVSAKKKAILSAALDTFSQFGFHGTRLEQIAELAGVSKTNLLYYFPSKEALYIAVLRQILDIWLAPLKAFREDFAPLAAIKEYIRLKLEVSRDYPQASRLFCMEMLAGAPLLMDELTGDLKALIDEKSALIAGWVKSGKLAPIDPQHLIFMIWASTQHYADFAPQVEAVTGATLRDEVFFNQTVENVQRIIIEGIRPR
Briefly: ITC; ITC: 100 mM potassium phosphate pH 6.4, 150 mM NaCl, 5 mM MgCl2, 2 mM b-ME, 20 or 25 C; SPR: 100 mM potassium phosphate pH 6.4, 300 mM NaCl, 0.05% Tween20, 25 C; EMSA: 20 mM Tris-HCl pH 7.5, 100 mM KCl, 2 mM DTT, 10% glycerol, 25 nM DNA, 30 C. As to conditions: protein: recombinant; tags: His6; chain copies: 2; blunt. For orientation: In ITC the heat of successive injections is recorded.

The next data set deals with T2, RutR WT (UniProt P0ACU2 1-212).
T2 sequence: T1 sequence with R7K, R11K
Described as above. Conditions: protein: recombinant; tags: His6; chain copies: 2; blunt.

In a further data set the target is T3, RutR K52R (UniProt P0ACU2 1-212, K52R).
T3 sequence: T1 sequence with R7K, R11K, K52R
Described as above. As to conditions: protein: recombinant; tags: His6; chain copies: 2; blunt.

The next data set has as its target T4, RutR K52Q (UniProt P0ACU2 1-212, K52Q).
T4 sequence: T1 sequence with R7K, R11K, K52Q
Described as above. As to conditions: protein: recombinant; tags: His6; chain copies: 2; blunt.

Another data set concerns the target T5, RutR K11Q (UniProt P0ACU2 1-212, K11Q).
T5 sequence: T1 sequence with R7K, R11Q
The description is as above. As to conditions: protein: recombinant; tags: His6; chain copies: 2; blunt.

A further data set deals with T6, RutR K7Q (UniProt P0ACU2 1-212, K7Q).
T6 sequence: T1 sequence with R7Q, R11K
Described as above. As to conditions: protein: recombinant; tags: His6; chain copies: 2; blunt.

For a further data set, the target named is T7, RutR K7Q/K11Q (UniProt P0ACU2 1-212, K7Q;K11Q).
T7 sequence: T1 sequence with R7Q, R11Q
Described as above. Conditions: protein: recombinant; tags: His6; chain copies: 2; blunt.

For the next data set, the target named is T8, RutR Δ1-12 (UniProt P0ACU2 13-212, del1-12).
T8 sequence: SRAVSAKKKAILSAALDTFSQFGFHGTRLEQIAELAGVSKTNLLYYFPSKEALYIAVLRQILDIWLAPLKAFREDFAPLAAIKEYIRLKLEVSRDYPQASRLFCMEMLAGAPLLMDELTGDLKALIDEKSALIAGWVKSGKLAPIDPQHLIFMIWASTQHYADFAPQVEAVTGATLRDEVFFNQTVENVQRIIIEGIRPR
Kind of data set: EMSA; ITC: 100 mM potassium phosphate pH 6.4, 150 mM NaCl, 5 mM MgCl2, 2 mM b-ME, 20 or 25 C; SPR: 100 mM potassium phosphate pH 6.4, 300 mM NaCl, 0.05% Tween20, 25 C; EMSA: 20 mM Tris-HCl pH 7.5, 100 mM KCl, 2 mM DTT, 10% glycerol, 25 nM DNA, 30 C. As to conditions: protein: recombinant; tags: His6; chain copies: 2; blunt.

Data set [8] deals with the molecule itself. Kind of data set: SEC; analytical size-exclusion chromatography of the purified RutR proteins; elution as dimer; column and buffer not given. (In general: In gel filtration, larger molecules generally elute earlier.)

Residue numbers refer to the chain shown, from its start.

Chain of RutR AcK7/11 K7AcK;K11AcK (Escherichia coli K12?) (P0ACU2 whole entry): as the sequence (P0ACU2 whole entry) above

Molecule “GTTTTAATGTAAATTTTGACCATTTGGTCCACTTTTTTCTGCTCGT (double strand) [biotin-boxcarA]” displayed a binding signal (fold reduced affinity vs WT) in data set [1] of 8.

As usually defined, the Kd is the free concentration of one partner at which half of the binding sites on the other are occupied at equilibrium, for simple one-to-one binding. On to “GTTTTATGTGCAACTGTTTTGACCGTTTAGTCCACTTTTTACCAGATATTTTAG (double strand) [boxrutA]”, for which the Kd turned out to be 95 nM in data set [2]; 72 nM in data set [3]; 58 nM in [4]; 94 nM in data set [5]; 251 nM in [6]; 32 nM in [7].

B1: boxrutA (dsDNA)
DNA 1: GTTTTATGTGCAACTGTTTTGACCGTTTAGTCCACTTTTTACCAGATATTTTAG
DNA 2: CTAAAATATCTGGTAAAAAGTGGACTAAACGGTCAAAACAGTTGCACATAAAAC
Consider B1, for which the Kd with RutR K7R/K11R came out at 47 ± 20 nM; in the data set with RutR WT, 44 ± 21 nM; with RutR K52R, 42 ± 30 nM; with RutR K52Q, 2420 ± 961 nM; with RutR K11Q, 332 ± 179 nM; with RutR K7Q, 57 ± 20 nM. Further, the dissociation constant (Kd) in the data set with RutR K7Q/K11Q was 540 ± 158 nM. Besides, the binding result in the data set with RutR Δ1-12 is on record as “binds”.

B2: non-acetylated RutR (pyrimidine utilization repressor) wild type (natural protein, E. coli, UniProt P0ACU2 1-212, looked up)
chain: T1 sequence with R7K, R11K
notes: RutR, TetR-family transcriptional regulator of Escherichia coli; called full-length RutR WT; Expressed from a modified pRSFDuet-1 that carries a G to P mutation after the start Met of the tag region; No tag cleavage is described; also called RutR WT; source: E. coli BL21 (DE3), purified (Ni-NTA, SEC)
Broadly, the stoichiometry N is a count of units in the complex or per binding partner. Consider B2, for which the “stoichiometry N” value in [8] is 2.

B3: RutR AcK7 (site-specifically K7-acetylated RutR) (natural protein, E. coli)
chain: T1 sequence with R7K, R11K
modifications: acetyl-lysine at 7
notes: RutR of Escherichia coli; rutR gene as in m1 with an amber stop codon at K7 for acetyl-L-lysine; Same rutR construct as m1 apart from the amber codon; constructs are in Supplementary Data 4; source: E. coli BL21 (DE3), genetic code expansion (acetyl-L-lysine at an amber codon), purified
B3: in data set [8], the “stoichiometry N” value came to 2.

B4: RutR AcK52 (site-specifically K52-acetylated RutR) (natural protein, E. coli)
chain: T1 sequence with R7K, R11K
modifications: acetyl-lysine at 52
notes: RutR of Escherichia coli; rutR gene as in m1 with an amber stop codon at K52 for acetyl-L-lysine; no electron density for the N-terminal 12 (chain A) or 11 (chain B) residues in the structure; Same rutR construct as m1 apart from the amber codon; constructs are in Supplementary Data 4; also called RutR AcK52•uracil; source: E. coli BL21 (DE3), genetic code expansion (acetyl-L-lysine at an amber …)
B4: the “stoichiometry N” value in [8] stood at 2.

B5: RutR AcK95 (site-specifically K95-acetylated RutR) (natural protein, E. coli)
chain: T1 sequence with R7K, R11K
modifications: acetyl-lysine at 95
notes: RutR of Escherichia coli; rutR gene as in m1 with an amber stop codon at K95 for acetyl-L-lysine; Same rutR construct as m1 apart from the amber codon; constructs are in Supplementary Data 4; source: E. coli BL21 (DE3), genetic code expansion (acetyl-L-lysine at an amber codon), purified
For B5, in data set [8], the “stoichiometry N” value stood at 2.

B6: RutR AcK21 (site-specifically K21-acetylated RutR) (natural protein, E. coli)
chain: T1 sequence with R7K, R11K
modifications: acetyl-lysine at 21
notes: RutR of Escherichia coli; rutR gene as in m1 with an amber stop codon at K21 for acetyl-L-lysine; Same rutR construct as m1 apart from the amber codon; constructs are in Supplementary Data 4; source: E. coli BL21 (DE3), genetic code expansion (acetyl-L-lysine at an amber codon), purified
In the case of B6, in [8], the “stoichiometry N” value was determined as 2.

B7: RutR AcK150 (site-specifically K150-acetylated RutR) (natural protein, E. coli)
chain: T1 sequence with R7K, R11K
modifications: acetyl-lysine at 150
notes: RutR of Escherichia coli; rutR gene as in m1 with an amber stop codon at K150 for acetyl-L-lysine; Same rutR construct as m1 apart from the amber codon; constructs are in Supplementary Data 4; source: E. coli BL21 (DE3), genetic code expansion (acetyl-L-lysine at an amber codon), purified
With B7, in [8], the “stoichiometry N” value was found to be 2.

B8: RutR AcK62 (site-specifically K62-acetylated RutR) (natural protein, E. coli)
chain: T1 sequence with R7K, R11K
modifications: acetyl-lysine at 62
notes: RutR of Escherichia coli; rutR gene as in m1 with an amber stop codon at K62 for acetyl-L-lysine; Same rutR construct as m1 apart from the amber codon; constructs are in Supplementary Data 4; source: E. coli BL21 (DE3), genetic code expansion (acetyl-L-lysine at an amber codon), purified
With B8, the “stoichiometry N” value in [8] was 2.

B9: double-acetylated RutR AcK7/11 (natural protein, E. coli)
chain: T1 sequence with R7K, R11K
modifications: acetyl-lysine at 7 and at 11
notes: RutR of Escherichia coli; rutR gene as in m1 with amber stop codons at K7 and K11 for acetyl-L-lysine; Same rutR construct as m1 apart from the amber codons; constructs are in Supplementary Data 4; also called K7- and K11-double-acetylated RutR; source: E. coli BL21 (DE3), genetic code expansion with an additional plasmid for the optimized MbtRNAopt, purified
Take B9: in [8], the “stoichiometry N” value came out at 2.

B10: RutR AcK11 (site-specifically K11-acetylated RutR) (natural protein, E. coli)
chain: T1 sequence with R7K, R11K
modifications: acetyl-lysine at 11
notes: RutR of Escherichia coli; rutR gene as in m1 with an amber stop codon at K11 for acetyl-L-lysine; Same rutR construct as m1 apart from the amber codon; constructs are in Supplementary Data 4; source: E. coli BL21 (DE3), genetic code expansion (acetyl-L-lysine at an amber codon), purified
For the molecule B10, the “stoichiometry N” value in data set [8] was found to be 2.

B11: boxcarA (dsDNA)
DNA 1: GTTTTAATGTAAATTTTGACCATTTGGTCCACTTTTTTCTGCTCGT
DNA 2: ACGAGCAGAAAAAAGTGGACCAAATGGTCAAAATTTACATTAAAAC
In the case of B11, the Kd with RutR K7R/K11R came to 17 ± 1 nM; with RutR WT, 28 ± 1 nM; in the data set with RutR K52R, 61 ± 36 nM; in the data set with RutR K52Q, 1220 ± 1130 nM; with RutR K11Q it was 42 ± 16 nM; in the data set with RutR K7Q it was 26 ± 12 nM. Besides, the Kd with RutR K7Q/K11Q came out at 153 ± 43 nM. Also, the binding result with RutR Δ1-12 is recorded as “binds”.
